# Assay results as given in the DeepSol protein solubility set.
# Assay: soluble on expression in E. coli; label from the status in PepcDB or PDB records
row,Sequence,soluble on expression in E. coli
1,MLTLLNRWRSQPGGASNAAAFIRVLESPKSAVTDKVLVLKAFNDWDVLVNTWFEVADALPAVEQLLDNNTFPEHSSAALLVSKVYFCLEQYERALEFALRGDFNVVPATRTGLGNDAEYVNKIIETAIDTYKTLSKQGSGIPQKLRDLIDRIVARNLDKREIWFVISLGFETTNLAMIDRAISAMPADLTIKNQTTLVETLNRVVNGAFDRSFRFQVIDTVIKTYLKCPSPDMSKICECYVLTDNAEAAADTITSLIAKSLSTRAYQIAFDLYETASQGFLDRVLKRFQQQDARDEKSMEKIHSILKGHETVKAYLDFFVRHNHTDSVLMEEIKENIRTASAHNALLISNGLMQYGTTCDDFLRNNLNWVSKATNWNKFNAVASLGLIHHGQESSAMKVLEPYLPKESVEGFGFKEGGAMLAYGLIHAKHGDATAMSTLAQWLKTAENEPVRHGACLGFGVAGLGSSSVSNYEKVREVLQRDEAVSGESAGIAMGLIMAGHLNQEVFNELKQYTVDTQHDKTQRGIRTGLACAAFGLQGDAEPYIKEAIGAKSNPMLRSTGICMLSMAYAGTGSPDVVRRLLEKVATDPNLDVKRYATIGIGFVLSKDPSTCLSYVAMLTEHFNGHVRYGAAMALGIACAGTGNMEAIALIEPMISDKEGFVRKGALLSLALIMCQQTDYTCPKVNGFRKQLLKKIGEKNEDSLVKFGAIIAQGLLDIGGQNAAVTMQNSDKQPDMGSMVGMMCFLHGWFWHSMHFFIALAAKPSCLVMMNENLKIPVLDYICHANSQKFAYPPRAESKKDKDVKKIETVVLSITGKKNASKKLIAEEKKRREAAASASSAAAAPSSSSTSGTAPAAEDEKMEVDQPGKSKKEKAPEKDTKPLHRLQNPARVIPAQRQLISISDARAYSPMKPLYKGGIIVADRVDKEREEKLVSEVVTQVNTPASSGNTENKPHSTFEININDF,not soluble
2,MSYTTDEVHFLLDLDAEITAVAGAITRDHAMTKATAVKDAATFHKHFGANGRAAMELCASRTSAQGKLPHDWLMCHDSSQQATPLTVAQQRAHRIHRVCGSEAIVHDVTCSIGTEGAAITDLGMAYHGSDLDMSRLLMARHNVPTGLFFQADALKRASTSSDVIIADPARRAEGRRITKPDQLIPPLPQLVDHWRIATTTAAPMAIKCAPGLDFQEWDGLVSVVSVAGGVKEACLYTPELSEGLTREAIMIGPDQSVDVLNDRHGGEVPAGDPGTFIIDPDGAVVRAGLVQHYAAREQLWMLDEHIAYLTGDRIPQGRSGFRFIEMVGLKQLKSALVAHDAGSLEILVRGVDVDPDQLRKKLKLKGNTPMAVICTRIGRKGVALICHAREHSQT,not soluble
3,GAMVETKCPNLDIVTSSGEFHCSGCVEHMPEFSYMYWLAKDMKSDEDTKFIEHLGDGINEDETVRTTDGGITTLRKVLHVTDTNKFAHYRFTCVLTTLDGVSKKNIWLK,soluble
4,AQGQTVYFHAWGGSQEINHYLQWANKELQSKYQVTLKHVKVSDISETIPRLIAEKAADKNTNGSVDMVWINGENFKSMKDNQLLFGPFTENLPSWKYVDKMLPIDVDFSEPTDGLEAPWGVGQLVFIHDSENLTNPPHSFAEMLSYAQKKPNSLSYPRPPEFHGTSVLKSMLIELTNNNPALQKPVSESDFNAVTAPLWDYLEKFHKVAWRGGKQFPAGTSETIQLLDDGQLDLAVTFNPNAVYSAQANGNLANTTKAYAMDSGALSNIHFLAIPWNAKASAGAQVAINFLLSPEAQSRKGDLNVWGDPSVLSSKYLTGSAKNTQQFKSVSEPHPSWQAAIEKEWLKRFGS,not soluble
5,MGSSHHHHHHGGTGENLYFQGGSGPSSVAYVLGTESCGKTDLVHQLEYLTLGLVRTVPTACTPTTGQEVTKLNICSPAGKGKVTVEVRELGGSLVNTWESFIESRKARDGGSGDTSFLLIYVVDGVAPHQLPLASTMFRYLTQGRHAPCAGWPTLITVQKCASVNAITAEEVRSFFLDEVEAPANVDVVEVDSWNGIGTGDVLKGIEAVFGGLQ,not soluble
6,MSLEYIIKNGIVYDPLNGINGEKMDICVKDGKIVESVSDNAKVIDASGCVVMPGGIDSHSHVAGAKVNVGRIFRPEDSKREIYAKKGLRTGTGFSVPSTYKTGYQYSEMGYTTVIEAAMPPLIARHTHEEFMETPQIDKAAMPLFGNNWMVLEYLKEGDIKACAAFVAWLLKAVKGFAIKIVNPGGTEAWGWGKNVHSLDDPVPYFDITPREIVRGLAEVNELLGLPHSIHVHPNNLGHPGNWETTLETMKCVEGVEAKPRVGERETSYYNTHCQFHSYGGTSWKDFESKAIEIAEYVNKSKHVVIDVGQVTLDETTTMTADGPMEYDLHMTNGLKWANCDVELETGSGVVPFIYSPKGPVYAVQWAIGLELFLNTNTDKVLLTTDHPNAGPFTRYPRVIAWLMSKKYRDEWLYNKVHKWAQQRSHVADADKEYDLYEIAKITRANQAKVLGLSETKGHLGVGAEADIAIYAIDPEEKDGKKIEKAFRYAKYVLKGGEVVVKDGNVVKEVFGDTIYVDVQVGEDLMNEVLKDVGEKFRRYYSVNLENYPVSDEYANSWRVIKIDATDINEGHHHHHH,not soluble
7,MGSDKIHHHHHHMKNKVGIMYDNISGNTGDVAIGISLRKIMKELKVDFDEILLNNIDVLKYNTVIIGGGHLLRENSDFFYDKFKLRGPNILNSVGVVGNPNDLQYLEEYKYVTFRSEGDRKKAGYLNKKSSVVPCTTMLLDDLQDFPIHIKRPAIGVHLIPNIFSKEEEGLFVKWASKLPYTIYFIPITHYNYDYIYMSKLSQRISNSRVLPIMKPLEIFTFIGKLDYLITCSLHGSIFSYIHNVPFILMEQEKSRFFLEDRGLQGYLFSNLKEIIGLTEKVINNPLDYSNLIVKDKKILEEHVENIKQIVPNNSTYILSKECTESDEITQLNLQNGILQINLSKLTYELEAYKKEIKGINFRLKDEESKHMYYKKELKKIYRSRGWKALKKFYSLKDFISKKINGA,not soluble
8,MGSDKIHHHHHHMSLSRINIGSFRNITSASLQPCDGLNLIYGQNGSGKTSILEAIYFLGMGRSFRSHLSQRVINNDDDKLTLFAHLIDADRDCKIGLRRHRSGEIEVKIDGEKVKRLSTLAETLPIQVITPESFSLLFEGPKARRQFIDWGAFHSDPHFYQAWVNTRKVLKQRNQLLRNQSSYNQIQFWDKELVRYAEQVTDIRNQYVDSLNVLLKGIIGVFLPRIDIKVSFTRGWDSKTDFAQLLENQYSRDLAAGNTGSGPHKADLRLRVGNLPAQDALSRGQLKLLVCALRIAQGKLLKQQLDKNSIYLVDDLPSELDAQHRQLLLQLLTETGAQIFVTAIDPQAIVDSLSSPPNRMFHVEQGLVTVIE,not soluble
9,MSSVLRLAMRAKGFSRFLAETQAFPVKNRHFMTSSVRKTGDFEYEDPKSEDEVVNITYVLRDGTERKIRGKVGDNVMFLAHRYDIEMEGACEASLACSTCHVYVDPAFQNKLPEPLEEEDDMLDMAPALKDNSRLGCQIVLTKELDGITVTLPTMTRNFYVDGHVPKPH,not soluble
10,MGSDKIHHHHHHLNILVTNDDGIMSPGIILLAEALSEDHEVLVVAPDVERSATGHAITIRTPLWAKEVKVGNKNIGYAINGTPADCVKLGLLAISDRKIDLVISGVNKGQNMGIDVLYSGTVSGALEGAVTDTPSIAVSSSDWSNPEYETAARFMVNFLKIYDVSKMPDFTALNINVPSIKYEELKGWKVTRQSRRRYKDYFEKRKDPYGNNYYWIFGEVVEDECSTDCDFNAVKSNFVSITPLHAIMTDKKYFDELKEISEGWSE,not soluble
11,MKKVQPLNPEQVKRFLETAKQDPLYPAFLLALGTGLRRGEILGLRWQDLDLQKGILQVRQSLIRTREGLKFEEPKTEKSRRQIPLPPSVVAALKRHKAWVNQNKLILGPDYEDHDLVFPVENGRPRDPKGFAEYFNRLLDKAGLPHIRLHDLRHTHATLLLLEGVHPKVVQERLGHSTVSITLDIYSHILPGLQEKAAERIDGLLQPKENPSPKEGTIKLEHHHHHH,soluble
12,MATTTPERVMQETMDYHALNAMLNLYDKAGHIQFDKDQQAIDAFFATHVRPHSVTFASQHERLGTLVREGYYDDAVLARYDRAFVLRLFEHAHASGFRFQTFLGAWKFYTSYTLKTFDGKRYLEHFEDRVTMVALTLAQGDETLATQLTDEMLSGRFQPATPTFLNCGKQQRGELVSCFLLRIEDNMESIGRAVNSALQLSKRGGGVAFLLSNLREAGAPIKRIENQSSGVIPVMKMLEDAFSYANQLGARQGAGAVYLHAHHPDILRFLDTKRENADEKIRIKTLSLGVVIPDITFRLAKENAQMALFSPYDIQRRYGKPFGDIAISERYDELIADPHVRKTYINARDFFQTLAEIQFESGYPYIMFEDTVNRANPIAGRINMSNLCSEILQVNSASRYDDNLDYTHIGHDISCNLGSLNIAHVMDSPDIGRTVETAIRGLTAVSDMSHIRSVPSIAAGNAASHAIGLGQMNLHGYLAREGIAYGSPEALDFTNLYFYTITWHAVHTSMRLARERGKTFAGFAQSRYASGDYFTQYLQDDWQPKTAKVRALFARSGITLPTREMWLKLRDDVMRYGIYNQNLQAVPPTGSISYINHATSSIHPIVAKIEIRKEGKTGRVYYPAPFMTNENLDMYQDAYDIGPEKIIDTYAEATRHVDQGLSLTLFFPDTATTRDINKAQIYAWRKGIKSLYYIRLRQLALEGTEIEGCVSCAL,soluble
13,MGSDKIHHHHHHMPKPTKIVVLLKGYPRLSETFIAQELLGLEQAGFALELVAMRRPTDKKRHPVHDEIQAPVHYLPEYLHEEPGRVLKALWAVRRLPGFRPVLTQFFKDLRRDFSRNRFRRLGQAMVLVAEWPGKADWLHAHFIHTPASVAFYASLLGSRGFSVSAHAKDIWTSESWDLADKLAHATWVVTCTKVGFDRLSALADGRGSVHLSYHGLDLDRFPHFEGVRPARDGSDTADPLRLLSVGRAVKKKGYDVLLRALSALPADLNWHFTHIGGGDELVRLQALADQLGIASRITWKGAMDQRDVLTHYRDSDLFTLACRITADGDRDGLPNVLVEAASQGLMPVSTTVSGISELFVDGENGLLVEPDDAQALAVALEKAMRDPALRARLGSAAEGKVRRDFDYRNSIRDLTDLFSGRQ,not soluble
14,MDSDLYDEFGNYIGPELDSDDDAGDIDDNGDDEDRSDVDEDDEPDRMEEDDAEEIPQNQVVLHEDKKYYATALEVYGEGVETLVQEEDAQPLTEPIVKPVSKKKFQAAERFLPETVYKKEYLADLMDCPHIMRNVAIAGHLHHGKTTFLDCLMEQTHPEFYRAEDADARFTDILFIEKQRGCSIKSQPVSIVAQDSRSKSYLLNIIDTPGHVNFSDEMTASYRLADGVVVMVDAHEGVMMNTERAIRHAIQERLAVTLCISKIDRLLLELKLPPADAYFKLRLIIDQVNNILSTFAEEDVPVLSPLNGNVIFSSGRYNVCFSLLSFSNIYAKQHGDSFNSKEFARRLWGDIYFEKKTRKFVKKSPSHDAPRTFVQFILEPMYKIFSQVVGDVDTCLPDVMAELGIRLSKEEQKMNVRPLIALICKRFFGDFSAFVDLVVQNIKSPLENAKTKIEQTYLGPADSQLAQEMQKCNAEGPLMVHTTKNYPVDDATQFHVFGRVMSGTLEANTDVRVLGENYSIQDEEDCRRMTVGRLFVRVASYQIEVSRVPAGCWVLIEGIDQPIVKTATIAELGYEEDVYIFRPLKFNTRSCVKLAVEPINPSELPKMLDGLRKVNKSYPLLTTRVEESGEHVLLGTGEFYMDCVMHDMRKVFSEIDIKVADPVVTFNETVIETSTLKCFAETPNKKNKITMMAEPLEKQLDEDIENEVVQIGWNRRRLGEFFQTKYNWDLLAARSIWAFGPDTTGPNILLDDTLPSEVDKHLLSTVRESLVQGFQWATREGPLCEEPIRQVKFKLLDAAIATEPLYRGGGQMIPTARRCAYSAFLMATPRLMEPYYTVEVVAPADCVAAVYTVLAKRRGHVTTDAPMPGSPMYTISAYIPVMDSFGFETDLRIHTQGQAFCMSAFHHWQLVPGDPLDKSIVIKTLDVQPTPHLAREFMIKTRRRKGLSEDVSVNKFFDDPMLLELAKQQDYTGF,soluble
15,MASEHFDMWESRFSADGYLFGTAPNAFLASCHDLLPKQGRALAIADGEGRNGVFLAECGLSVLSVDFSPTAQAKAHKLAAERGVTIETRTADLLSWQWPGGFDVIAGIFFQFVEPEQRPQIFQQIRAALKPGALLLIEGYRPKQLAYKTGGPSRAENLYTRELLEQAFGDFDNLSIRERDSEIVEGAGHAGLSALIDLIGWKPKLEHHHHHH,not soluble
